Molecular target: the molecule itself
Assay: SEC-MALS; HBb at 3 mg/mL, Superdex 75 Increase 10/300 GL, 20 mM Tris pH 8.0, 150 mM NaCl, 1 M urea, 0.5 mL/min

B1: histone protein HBb from Bdellovibrio bacteriovorus (natural protein)
chain: MAEVLVVTSKVKKLIKEKGQMNTSAETIDVLSKAIEQLCLKGVESAKADGRKTVMARDIVIDHL
notes: HBb, histone homolog of Bdellovibrio bacteriovorus HD100, UniProt Q6MRM1; 64 amino acid residues, single histone fold domain; the gene encoding HBb was codon-optimized, synthesized and cloned into pETHis1a; In the crystal the first three and last three amino acids are not resolved; also called bacterial histone HBb; Bd0055; source: E. coli Mutant56(DE3), purified (HisTrap, TEV cleavage, second …)
- stoichiometry N: 2

Reference: article doi:10.1101/2023.02.26.530074, “Atomic resolution structure of a DNA-binding histone protein from the bacterium Bdellovibrio bacteriovorus” (bioRxiv, 2023)
